Source: paper PMC4627827, “SCARN a Novel Class of SCAR Protein That Is Required for Root-Hair Infection during Legume Nodulation”

Experiments:
[1] = target: LjARPC3 (yeast two-hybrid fusion) (Lotus japonicus); assay: two-hybrid; S. cerevisiae AH109; quantitative β-galactosidase (lacZ) activity under the control of the GAL4 promoter
[2] = target: NIN C-terminal half (RWP-RK domain) (Lotus japonicus, UniProt Q9S7B1 520-878); assay: EMSA; 0.5 or 1 ug protein; unlabeled competitor 5x, 10x or 50x; EMSA with LightShift chemiluminescent kit (Thermo); buffer, salt, pH and temperature not stated; details: protein: recombinant; tags: C-terminal His; label: biotin; blunt
NIN C-terminal half (RWP-RK domain), sequence (Q9S7B1 entry or part of it): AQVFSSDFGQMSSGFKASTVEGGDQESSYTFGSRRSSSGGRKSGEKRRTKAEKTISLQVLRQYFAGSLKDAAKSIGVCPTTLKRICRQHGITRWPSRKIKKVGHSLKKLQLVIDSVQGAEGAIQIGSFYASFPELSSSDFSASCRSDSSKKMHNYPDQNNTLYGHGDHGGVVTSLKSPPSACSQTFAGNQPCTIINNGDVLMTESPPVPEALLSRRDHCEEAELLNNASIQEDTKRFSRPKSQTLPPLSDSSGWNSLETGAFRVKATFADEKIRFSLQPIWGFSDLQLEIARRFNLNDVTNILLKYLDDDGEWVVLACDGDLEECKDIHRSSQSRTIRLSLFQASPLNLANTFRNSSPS

β-galactosidase (LacZ) activity [1]	Molecule	binding result [2]
18.1 units	SCARN C-terminal WA domain (yeast two-hybrid fusion) (domain or fragment)	–
–	SCARN promoter S3 (dsDNA) DNA 1: AGTCAAGAGGATTGCAGAAGAAAGTAGGGTTTGTGAATCG DNA 2: CGATTCACAAACCCTACTTTCTTCTGCAATCCTCTTGACT	binds
–	SCARN promoter S2 (dsDNA) DNA 1: AAGAGGTGAAACTGAAGGAGTCAAGAGGATTGCAGAAGAA DNA 2: TTCTTCTGCAATCCTCTTGACTCCTTCAGTTTCACCTCTT	binds
–	SCARN promoter S1 (dsDNA) DNA 1: GTAGTAGAGAGATAGAGTGAGTGAAAGGGTTTGAGGAATG DNA 2: CATTCCTCAAACCCTTTCACTCACTCTATCTCTCTACTAC	binds
